Data on one protein can be found in PMC3932240 (Biochemistry, 2013).

The data set concerns the molecule itself. The data set is described as follows: SEC.

B1: CpcS-III bilin lyase from Thermosynechococcus elongatus BP-1, C-terminally His-tagged (from pTER13-21) (enzyme, UniProt Q8DI91 1-182, looked up)
chain: MCIGMDIRDFFAQSAGRWFSQRTSHHLAFKQTESGKSQLTIELLSVDDPAVIALCQQYDMDPAWAVCGARVSWDGTMEWDNEKHEGSTVLVPIMDQGSRMEGKLLREMGYAEKAPVAGRFSMGSDGALTLITEYETIYSEERLWFASPNLRLRTSILKRFGGFSMASFCSEIRLGVTQPANS
modifications: selenomethionine-labeled in the sample that was crystallized
For the protein B1, the “stoichiometry N” value came to 2.
